T1: Abp1, P15891
T1 sequence (P15891 535-592, looked up): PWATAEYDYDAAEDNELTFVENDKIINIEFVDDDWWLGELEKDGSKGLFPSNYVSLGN

T2: Bbc1, P47068
T2 sequence (P47068 1-78, looked up): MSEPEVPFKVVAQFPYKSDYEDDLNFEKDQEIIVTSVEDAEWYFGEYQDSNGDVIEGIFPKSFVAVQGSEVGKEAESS

T3: Boi1, P38041
T3 sequence (P38041 1-86, looked up): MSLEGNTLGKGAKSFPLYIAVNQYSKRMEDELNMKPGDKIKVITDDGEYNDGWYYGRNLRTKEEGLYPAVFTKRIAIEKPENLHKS

T4: Boi2, P39969
T4 sequence (P39969 32-116, looked up): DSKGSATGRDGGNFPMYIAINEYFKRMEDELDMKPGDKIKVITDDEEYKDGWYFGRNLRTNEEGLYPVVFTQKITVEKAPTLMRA

T5: Bud14, P27637
T5 sequence (P27637 247-328, looked up): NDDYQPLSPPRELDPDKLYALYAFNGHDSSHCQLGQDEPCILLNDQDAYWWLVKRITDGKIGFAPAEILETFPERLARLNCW

T6: Bzz1-1, P38822
T6 sequence (P38822 478-572, looked up): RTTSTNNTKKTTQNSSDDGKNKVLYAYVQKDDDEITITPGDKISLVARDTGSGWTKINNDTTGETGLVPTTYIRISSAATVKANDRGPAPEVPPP

T7: Bzz1-2, P38822
T7 sequence (P38822 568-633, looked up): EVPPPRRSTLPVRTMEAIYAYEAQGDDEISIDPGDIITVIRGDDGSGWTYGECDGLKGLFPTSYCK

T8: Cdc25, P04821
T8 sequence (P04821 50-136, looked up): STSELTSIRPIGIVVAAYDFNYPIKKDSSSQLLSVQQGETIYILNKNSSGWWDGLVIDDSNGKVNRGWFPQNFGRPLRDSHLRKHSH

T9: Cyk3, Q07533
T9 sequence (Q07533 1-83, looked up): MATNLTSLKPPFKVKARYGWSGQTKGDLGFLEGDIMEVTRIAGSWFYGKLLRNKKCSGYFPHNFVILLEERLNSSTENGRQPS

T10: Fus1, P11710
T10 sequence (P11710 432-512, looked up): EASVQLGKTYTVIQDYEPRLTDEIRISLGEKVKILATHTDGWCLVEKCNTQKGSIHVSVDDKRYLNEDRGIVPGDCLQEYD

T11: Hof1, Q05080
T11 sequence (Q05080 590-669, looked up): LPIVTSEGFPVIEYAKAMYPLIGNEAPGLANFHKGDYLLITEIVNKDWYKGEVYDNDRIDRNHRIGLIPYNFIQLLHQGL

T12: Hse1, P38753
T12 sequence (P38753 208-285, looked up): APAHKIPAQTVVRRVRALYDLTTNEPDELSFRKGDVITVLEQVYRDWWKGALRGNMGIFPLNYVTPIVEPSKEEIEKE

T13: Lsb1, P53281
T13 sequence (P53281 45-122, looked up): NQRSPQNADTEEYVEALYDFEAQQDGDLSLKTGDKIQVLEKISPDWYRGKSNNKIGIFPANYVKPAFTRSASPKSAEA

T14: Lsb3, P43603
T14 sequence (P43603 385-451, looked up): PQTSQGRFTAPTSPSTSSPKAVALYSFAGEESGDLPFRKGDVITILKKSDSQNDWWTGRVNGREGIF

T15: Lsb4, P32793
T15 sequence (P32793 402-468, looked up): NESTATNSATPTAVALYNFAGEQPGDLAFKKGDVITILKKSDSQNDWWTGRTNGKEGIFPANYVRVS

T16: Myo5, Q04439
T16 sequence (Q04439 1072-1160, looked up): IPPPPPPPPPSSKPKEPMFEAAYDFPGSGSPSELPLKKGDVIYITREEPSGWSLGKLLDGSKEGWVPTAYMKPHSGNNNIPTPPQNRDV

T17: Nbp2, Q12163
T17 sequence (Q12163 103-180, looked up): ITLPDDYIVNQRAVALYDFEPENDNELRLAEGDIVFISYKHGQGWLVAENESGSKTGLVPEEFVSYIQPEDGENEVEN

T18: Pex13, P80667
T18 sequence (P80667 295-386, looked up): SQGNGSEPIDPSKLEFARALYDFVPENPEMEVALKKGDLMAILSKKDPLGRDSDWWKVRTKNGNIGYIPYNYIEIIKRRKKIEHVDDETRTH

T19: Pin3, Q06449
T19 sequence (Q06449 53-122, looked up): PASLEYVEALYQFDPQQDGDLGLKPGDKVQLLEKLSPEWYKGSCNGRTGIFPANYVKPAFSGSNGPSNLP

T20: Sla1-2, P32790
T20 sequence (P32790 60-140, looked up): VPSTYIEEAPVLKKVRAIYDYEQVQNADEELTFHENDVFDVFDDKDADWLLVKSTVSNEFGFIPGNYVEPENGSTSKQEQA

T21: Sla1-3, P32790
T21 sequence (P32790 344-424, looked up): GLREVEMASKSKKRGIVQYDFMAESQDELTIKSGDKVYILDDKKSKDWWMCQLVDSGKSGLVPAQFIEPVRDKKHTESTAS


Target: T1, Abp1, P15891
Assay: SPOT array
Conditions: median of control spots 935

Row | Binder | SPOT intensity
1 | LKVTPGRRAPTISKI | 83
2 | RKNRAPPQRPRFNRD | 298
3 | IHTRRPSSTSQYLIR | 27

Target: T2, Bbc1, P47068
Assay: SPOT array
Conditions: median of control spots 796

Row | Binder | SPOT intensity
4 | LKVTPGRRAPTISKI | 17
5 | RKNRAPPQRPRFNRD | 535
6 | IHTRRPSSTSQYLIR | 6

Target: Bem1-1, P29366
Assay: SPOT array
Conditions: median of control spots 4282

Chain of Bem1-1, P29366 (P29366 55-141): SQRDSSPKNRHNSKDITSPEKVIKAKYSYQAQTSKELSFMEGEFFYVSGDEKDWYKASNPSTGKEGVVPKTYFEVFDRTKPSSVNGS

Row | Binder | SPOT intensity
7 | LKVTPGRRAPTISKI | 1
8 | RKNRAPPQRPRFNRD | 0
9 | IHTRRPSSTSQYLIR | 9

Target: Bem1-2, P29366
Assay: SPOT array
Conditions: median of control spots 4347

Chain of Bem1-2, P29366 (P29366 139-227): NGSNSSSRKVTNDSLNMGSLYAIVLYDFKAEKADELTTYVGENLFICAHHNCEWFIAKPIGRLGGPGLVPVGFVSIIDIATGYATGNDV

Row | Binder | SPOT intensity
10 | LKVTPGRRAPTISKI | 3
11 | RKNRAPPQRPRFNRD | 104
12 | IHTRRPSSTSQYLIR | 43

Target: T3, Boi1, P38041
Assay: SPOT array
Conditions: median of control spots 1162

Row | Binder | SPOT intensity
13 | LKVTPGRRAPTISKI | 0
14 | RKNRAPPQRPRFNRD | 12
15 | IHTRRPSSTSQYLIR | 2

Target: T4, Boi2, P39969
Assay: SPOT array
Conditions: median of control spots 1161

Row | Binder | SPOT intensity
16 | LKVTPGRRAPTISKI | 2
17 | RKNRAPPQRPRFNRD | 7
18 | IHTRRPSSTSQYLIR | 0

Target: T5, Bud14, P27637
Assay: SPOT array
Conditions: median of control spots 956

Row | Binder | SPOT intensity
19 | LKVTPGRRAPTISKI | 8
20 | RKNRAPPQRPRFNRD | 18
21 | IHTRRPSSTSQYLIR | 4

Target: T6, Bzz1-1, P38822
Assay: SPOT array
Conditions: median of control spots 4446

Row | Binder | SPOT intensity
22 | LKVTPGRRAPTISKI | 0
23 | RKNRAPPQRPRFNRD | 11
24 | IHTRRPSSTSQYLIR | 0

Target: T7, Bzz1-2, P38822
Assay: SPOT array
Conditions: median of control spots 4538

Row | Binder | SPOT intensity
25 | LKVTPGRRAPTISKI | 1
26 | RKNRAPPQRPRFNRD | 91
27 | IHTRRPSSTSQYLIR | 7

Target: T8, Cdc25, P04821
Assay: SPOT array
Conditions: median of control spots 969

Row | Binder | SPOT intensity
28 | LKVTPGRRAPTISKI | 13
29 | RKNRAPPQRPRFNRD | 40
30 | IHTRRPSSTSQYLIR | 10

Target: T9, Cyk3, Q07533
Assay: SPOT array
Conditions: median of control spots 1451

Row | Binder | SPOT intensity
31 | LKVTPGRRAPTISKI | 1
32 | RKNRAPPQRPRFNRD | 12
33 | IHTRRPSSTSQYLIR | 1

Target: T10, Fus1, P11710
Assay: SPOT array
Conditions: median of control spots 1200

Row | Binder | SPOT intensity
34 | LKVTPGRRAPTISKI | 0
35 | RKNRAPPQRPRFNRD | 26
36 | IHTRRPSSTSQYLIR | 233

Target: GST
Assay: SPOT array
Conditions: median of control spots 978

Row | Binder | SPOT intensity
37 | LKVTPGRRAPTISKI | 0
38 | RKNRAPPQRPRFNRD | 4
39 | IHTRRPSSTSQYLIR | 0

Target: T11, Hof1, Q05080
Assay: SPOT array
Conditions: median of control spots 4086

Row | Binder | SPOT intensity
40 | LKVTPGRRAPTISKI | 0
41 | RKNRAPPQRPRFNRD | 8
42 | IHTRRPSSTSQYLIR | 11

Target: T12, Hse1, P38753
Assay: SPOT array
Conditions: median of control spots 1727

Row | Binder | SPOT intensity
43 | LKVTPGRRAPTISKI | 0
44 | RKNRAPPQRPRFNRD | 23
45 | IHTRRPSSTSQYLIR | 22

Target: T13, Lsb1, P53281
Assay: SPOT array
Conditions: median of control spots 388

Row | Binder | SPOT intensity
46 | LKVTPGRRAPTISKI | 0
47 | RKNRAPPQRPRFNRD | 670
48 | IHTRRPSSTSQYLIR | 0

Target: T14, Lsb3, P43603
Assay: SPOT array
Conditions: median of control spots 406

Row | Binder | SPOT intensity
49 | LKVTPGRRAPTISKI | 0
50 | RKNRAPPQRPRFNRD | 68
51 | IHTRRPSSTSQYLIR | 0

Target: T15, Lsb4, P32793
Assay: SPOT array
Conditions: median of control spots 397

Row | Binder | SPOT intensity
52 | LKVTPGRRAPTISKI | 7
53 | RKNRAPPQRPRFNRD | 75
54 | IHTRRPSSTSQYLIR | 2

Target: Myo3, P36006
Assay: SPOT array
Conditions: median of control spots 468

Row | Binder | SPOT intensity
55 | LKVTPGRRAPTISKI | 80
56 | RKNRAPPQRPRFNRD | 61
57 | IHTRRPSSTSQYLIR | 1

Target: T16, Myo5, Q04439
Assay: SPOT array
Conditions: median of control spots 471

Row | Binder | SPOT intensity
58 | LKVTPGRRAPTISKI | 6
59 | RKNRAPPQRPRFNRD | 3
60 | IHTRRPSSTSQYLIR | 1

Target: T17, Nbp2, Q12163
Assay: SPOT array
Conditions: median of control spots 357

Row | Binder | SPOT intensity
61 | LKVTPGRRAPTISKI | 85
62 | RKNRAPPQRPRFNRD | 490
63 | IHTRRPSSTSQYLIR | 0

Target: T18, Pex13, P80667
Assay: SPOT array
Conditions: median of control spots 1341

Row | Binder | SPOT intensity
64 | LKVTPGRRAPTISKI | 3
65 | RKNRAPPQRPRFNRD | 10
66 | IHTRRPSSTSQYLIR | 11

Target: T19, Pin3, Q06449
Assay: SPOT array
Conditions: median of control spots 2171

Row | Binder | SPOT intensity
67 | LKVTPGRRAPTISKI | 14
68 | RKNRAPPQRPRFNRD | 9
69 | IHTRRPSSTSQYLIR | 25

Target: Rvs167, P39743
Assay: SPOT array
Conditions: median of control spots 2707

Chain of Rvs167, P39743 (P39743 419-482): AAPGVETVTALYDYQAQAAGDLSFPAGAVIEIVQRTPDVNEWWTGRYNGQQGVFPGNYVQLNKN

Row | Binder | SPOT intensity
70 | LKVTPGRRAPTISKI | 0
71 | RKNRAPPQRPRFNRD | 2
72 | IHTRRPSSTSQYLIR | 0

Target: Sho1, P40073
Assay: SPOT array
Conditions: median of control spots 1148

Chain of Sho1, P40073 (P40073 287-367): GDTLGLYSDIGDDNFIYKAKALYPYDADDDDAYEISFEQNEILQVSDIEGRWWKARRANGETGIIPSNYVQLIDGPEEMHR

Row | Binder | SPOT intensity
73 | LKVTPGRRAPTISKI | 72
74 | RKNRAPPQRPRFNRD | 262
75 | IHTRRPSSTSQYLIR | 28

Target: T20, Sla1-2, P32790
Assay: SPOT array
Conditions: median of control spots 712

Row | Binder | SPOT intensity
76 | LKVTPGRRAPTISKI | 0
77 | RKNRAPPQRPRFNRD | 3
78 | IHTRRPSSTSQYLIR | 0

Target: T21, Sla1-3, P32790
Assay: SPOT array
Conditions: median of control spots 5475

Row | Binder | SPOT intensity
79 | LKVTPGRRAPTISKI | 6
80 | RKNRAPPQRPRFNRD | 353
81 | IHTRRPSSTSQYLIR | 21
